This passage reports Km results from PMC9843812, “The ybcF Gene of Escherichia coli Encodes a Local Orphan Enzyme, Catabolic Carbamate Kinase” (Journal of Microbiology and Biotechnology, 2022).

Substrate in data set [1]: Nc1ncnc2c1ncn2[C@@H]1O[C@H](COP(=O)(O)OP(=O)(O)O)[C@@H](O)[C@H]1O
The data set can be described thus: ATP formation measured by firefly luciferase luminescence, Michaelis-Menten / Lineweaver-Burk. It is filed as biochemical, Escherichia coli. To be noted: 2 mM CP fixed, ADP 0-3 mM, 30 mM MgCl2, 20 mM Tris-Cl pH 8, 28 °C, 60 min, 100 nM enzyme.

Substrate in data set [2]: NC(=O)OP(=O)(O)O
The data set is described as above. Particulars: 2 mM ADP fixed, CP 0-3 mM, 30 mM MgCl2, 20 mM Tris-Cl pH 8, 28 °C, 60 min, 100 nM enzyme. It counts as biochemical, Escherichia coli.

B1: YbcF (catabolic carbamate kinase, CK; proposed AllK) (Escherichia coli K-12) (protein)
chain: MKTLVVALGGNALLQRGEALTAENQYRNIASAVPALARLARSYRLAIVHGNGPQVGLLALQNLAWKEVEPYPLDVLVAESQGMIGYMLAQSLSAQPQMPPVTTVLTRIEVSPDDPAFLQPEKFIGPVYQPEEQEALEAAYGWQMKRDGKYLRRVVASPQPRKILDSEAIELLLKEGHVVICSGGGGVPVTDDGAGSEAVIDKDLAAALLAEQINADGLVILTDADAVYENWGTPQQRAIRHATPDELAPFAKADGSMGPNVTAVSGYVRSRGKPAWIGALSRIEETLAGEAGTCISL
Broadly, the Km is the concentration of substrate that gives half-maximal velocity. For the protein B1, the results for the Km in data set [1] and in data set [2] were 430 µM and 470 µM, respectively.
